In patent US20250352661A1 (MYTHIC THERAPEUTICS, published 2025):
Substitutions are numbered along the chain they refer to. In names and notes the source's numbering stands.

T1: Human LRRC15 Protein, His Tag (Acro Biosystems) (human, UniProt Q8TF66 22-538, limits assumed)
T1 construct: not shown: His tag
T1 sequence (looked up): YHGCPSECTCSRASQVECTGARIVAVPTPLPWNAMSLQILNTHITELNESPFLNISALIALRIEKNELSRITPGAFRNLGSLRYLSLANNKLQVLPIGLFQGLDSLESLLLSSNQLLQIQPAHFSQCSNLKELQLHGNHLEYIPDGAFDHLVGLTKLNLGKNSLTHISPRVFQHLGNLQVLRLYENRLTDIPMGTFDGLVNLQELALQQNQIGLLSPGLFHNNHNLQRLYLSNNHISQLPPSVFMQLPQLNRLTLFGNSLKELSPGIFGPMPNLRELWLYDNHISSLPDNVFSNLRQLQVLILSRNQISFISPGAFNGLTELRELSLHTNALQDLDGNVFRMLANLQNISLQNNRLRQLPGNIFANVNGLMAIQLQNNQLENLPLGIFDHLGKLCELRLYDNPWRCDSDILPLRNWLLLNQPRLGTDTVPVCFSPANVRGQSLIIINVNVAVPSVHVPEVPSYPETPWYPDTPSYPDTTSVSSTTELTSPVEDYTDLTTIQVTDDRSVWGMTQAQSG

T2: LRRC15 on the surface of LRRC15+ cells (SAOS-2, U87MG) (UniProt Q8TF66 22-581, limits assumed)
T2 sequence (looked up): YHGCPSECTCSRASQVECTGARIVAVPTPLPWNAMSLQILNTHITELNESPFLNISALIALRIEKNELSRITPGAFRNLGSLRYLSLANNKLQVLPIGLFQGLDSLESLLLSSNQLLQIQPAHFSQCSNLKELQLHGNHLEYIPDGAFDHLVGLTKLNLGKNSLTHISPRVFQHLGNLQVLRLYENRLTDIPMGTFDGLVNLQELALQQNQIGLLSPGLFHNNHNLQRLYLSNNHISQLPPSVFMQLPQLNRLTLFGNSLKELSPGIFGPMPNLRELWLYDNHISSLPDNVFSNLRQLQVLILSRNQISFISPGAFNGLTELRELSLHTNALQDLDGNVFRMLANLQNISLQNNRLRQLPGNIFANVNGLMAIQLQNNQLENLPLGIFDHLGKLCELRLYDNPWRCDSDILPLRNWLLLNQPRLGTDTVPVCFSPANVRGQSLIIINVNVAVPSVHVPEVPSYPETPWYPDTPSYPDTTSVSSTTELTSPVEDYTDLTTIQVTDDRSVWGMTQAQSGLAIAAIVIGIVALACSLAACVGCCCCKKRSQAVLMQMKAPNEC

T3: Human LRRC15 Protein, His Tag (Acro Biosystems) (human, UniProt Q8TF66 22-538, limits assumed)
T3 construct: Bought protein with His tag
T3 sequence (looked up): T1 sequence (looked up)

B1: MYT9714 (antibody, V domains shown)
VH: EVQLVESGGGLVQPGGSLRLSCTASGFSFSSSHWICWVRQAPGKGLEWVGCIYAGSIGSTYYASWAKGRFTISRDTSKNTVYLQMNSLRAEDTAVYYCAEAPNDIYNYYFNLWGQGTLVTVSS
VL: EIVMTQSPSTLSASVGDRVIITCQASENIYNYLAWYQQKPGKAPKLLIYYASTLASGVPSRFSGSGSGAEFTLTISSLQPDDFATYYCQSGYVSKSSTFGQGTKLTVL
notes: also called hu29F1 VH R100E
B2: MYT2737 (antibody, V domains shown)
VH: EVQLVQSGAEVKKPGASVKVSCKASGYKFSSYWIEWVKQAPGQGLEWIGEILPGSDTTNYNEKFKDRATFTSDTSINTAYMELSRLRSDDTAVYYCARDRGNYRAWFGYWGQGTLVTVSS
VL: DIQMTQSPSSLSASVGDRVTITCRASQDISNYLNWYQQKPGGAVKFLIYHTSRLHSGVPSRFSGSGSGTDYTLTISSLQPEDFATYFCQQGEALPWTFGGGTKVEIK
B3: MYT8387 (antibody, V domains shown)
VH: EVQLVESGGGLVQPGGSLRLSCTASGLDFRRTNHICWVRQAPGKGLEWVGCIYIADVVHYYASWAKGRFTFSRDTSKNTVYLQMNSLRAEDTAVYYCARGADGGFVYGMDLWGQGTLVTVSS
VL: EIVMTQSPSTLSASVGDRVIITCQASQSIGNYLSWYQQKPGKAPKRLIYSASTLPSGVPSRFSGSGSGAEFTLTISSLQPDDFATYYCQNNYWLAGYGHPFGQGTKLTVL
notes: hu15G7 VH Y34H; human Fc
B4: MYT8394 (antibody, V domains shown)
VH: B3 VH with F105H
VL: B3 VL
notes: hu15G7 VH Y34H, F105H; human Fc
B5: MYT8397 (antibody, V domains shown)
VH: B3 VH with H34Y, Y53H, F105H
VL: B3 VL
notes: hu15G7 VH Y53H, F105H; human Fc
B6: MYT8401 (antibody, V domains shown)
VH: B3 VH with H34Y, F105H, V106H
VL: B3 VL
notes: hu15G7 VH F105H, V106H; human Fc
B7: MYT8409 (antibody, V domains shown)
VH: B3 VH with H34Y, Y53H, G104H, V106H
VL: B3 VL
notes: hu15G7 VH Y53H, G104H, V106H; human Fc
B8: MYT8388 (antibody, V domains shown)
VH: B3 VH with H34Y, Y53H
VL: B3 VL
notes: hu15G7 VH Y53H; human Fc
B9: MYT8392 (antibody, V domains shown)
VH: B3 VH with Y53H
VL: B3 VL
notes: hu15G7 VH Y34H, Y53H; human Fc
B10: MYT8406 (antibody, V domains shown)
VH: B3 VH with G104H, V106H
VL: B3 VL
notes: hu15G7 VH Y34H, G104H, V106H; human Fc
B11: MYT8398 (antibody, V domains shown)
VH: B3 VH with H34Y, Y53H, V106H
VL: B3 VL
notes: hu15G7 VH Y53H, V106H; human Fc
B12: MYT8411 (antibody, V domains shown)
VH: B3 VH with H34Y, G104H, F105H, V106H
VL: B3 VL
notes: hu15G7 VH G104H, F105H, V106H; human Fc
B13: MYT8399 (antibody, V domains shown)
VH: B3 VH with H34Y, G104H, F105H
VL: B3 VL
notes: hu15G7 VH G104H, F105H; human Fc
B14: MYT8389 (antibody, V domains shown)
VH: B3 VH with H34Y, G104H
VL: B3 VL
notes: hu15G7 VH G104H; human Fc
B15: MYT8405 (antibody, V domains shown)
VH: B3 VH with G104H, F105H
VL: B3 VL
notes: hu15G7 VH Y34H, G104H, F105H; human Fc
B16: MYT8402 (antibody, V domains shown)
VH: B3 VH with Y53H, G104H
VL: B3 VL
notes: hu15G7 VH Y34H, Y53H, G104H; human Fc
B17: MYT8400 (antibody, V domains shown)
VH: B3 VH with H34Y, G104H, V106H
VL: B3 VL
notes: hu15G7 VH G104H, V106H; human Fc
B18: MYT8407 (antibody, V domains shown)
VH: B3 VH with F105H, V106H
VL: B3 VL
notes: hu15G7 VH Y34H, F105H, V106H; human Fc
B19: MYT8410 (antibody, V domains shown)
VH: B3 VH with H34Y, Y53H, F105H, V106H
VL: B3 VL
notes: hu15G7 VH Y53H, F105H, V106H; human Fc
B20: MYT8395 (antibody, V domains shown)
VH: B3 VH with V106H
VL: B3 VL
notes: hu15G7 VH Y34H, V106H; human Fc
B21: MYT8403 (antibody, V domains shown)
VH: B3 VH with Y53H, F105H
VL: B3 VL
notes: hu15G7 VH Y34H, Y53H, F105H; human Fc
B22: MYT8408 (antibody, V domains shown)
VH: B3 VH with H34Y, Y53H, G104H, F105H
VL: B3 VL
notes: hu15G7 VH Y53H, G104H, F105H; human Fc
B23: MYT8390 (antibody, V domains shown)
VH: B3 VH with H34Y, F105H
VL: B3 VL
notes: hu15G7 VH F105H; human Fc

biological target: T1, Human LRRC15 Protein, His Tag (Acro …); test: BLI; dissociation pH 7.4 black, pH 5.4 grey [1/2); D00025 FIG. 6B (1/2]
Description: Desirable mutations were transferred to a humanized framework (humanized, MYT 8387-8411). After allowing for four days of protein expression, cell culture supernatants were collected, quantified by SDS-PAGE analysis, and the pH dependence of the variant was evaluated using biolayer interferometry (BLI) on an Octet RED 96e instrument. Briefly, cell culture supernatants were diluted based on qualitative expression level of the variant determined by visual examination of SDS-PAGE gels, 5 μL of cell culture supernatant was diluted into 195 μL of 1×PBST, pH 7.4 for high expressors, 25 μL of cell culture supernatant was diluted into 175 μL of 1×PBST, pH 7.4 for medium expressors and 100 μL of cell culture supernatant was diluted into 100 μL of 1×PBST, pH 7.4 for low expressors for loading onto the sensor tips. The resulting diluted supernatants were then captured on an anti-human Fc sensor (Forte Bio). A baseline was established using 1×PBST (50 mM Potassium Phosphate Buffer+150 mM NaCl+0.05% Tween 20) pH 7.4, and the […] was associated with 50 nM of LRRC15 (Human LRRC15 Protein, His Tag, Acro Biosystems) in 1×PBST pH 7.4 for 120 sec to generate an association curve. In the dissociation phase, the antibody-antigen complex on the sensor was exposed to 1×PBST pH 7.4 or pH 5.4, for 300 sec. Association and dissociation phase curves were examined for the starting ABPC antibody (with no substitutions) and each corresponding antibody variant at pH 5.4 and pH 7.4 to inform on two criteria: a) enhanced dissociation (i.e., higher koff values) at pH 5.4 due to histidine substitution compared to the starting ABPC, (with no substitutions), and b) reduced dissociation at pH 7.4 (i.e., lower koff values) compared to pH 5.4 in the antibody variant itself and with the starting ABPC (with no substitutions).
The methods of Examples 9-10 were applied to RabMAb clone 29F1 (rabbit VH SEQ ID NO: 572 and VL SEQ ID NO: 578; and humanized VH SEQ ID NO: 576 and VL SEQ ID NO: 582).

binding result | Binder
binds | B1

biological target: T2, LRRC15 on the surface of LRRC15+ cells …; test: cell-based or functional assay

Internalization in U87MG cells (10 nM, 24 hours), FOB = fold over background (IgG control) | Internalization in U87MG cells (10 nM, 24 hours), FOS = fold over samrotamab | Binder
2.07 fold over background (IgG control) | 1.24 fold over samrotamab | B2

biological target: T3, Human LRRC15 Protein, His Tag (Acro …); test: BLI; dissociation pH 7.4 black, pH 5.4 grey [D00009 FIG. 1G]

binding result | Binder
binds | B3
no binding (tested: 50 nM LRRC15) | B4
no binding (tested: 50 nM LRRC15) | B5
binds | B6
no binding (tested: 50 nM LRRC15) | B7
binds | B8
no binding (tested: 50 nM LRRC15) | B9
no binding (tested: 50 nM LRRC15) | B10
no binding (tested: 50 nM LRRC15) | B11
binds | B12
binds | B13
binds | B14
binds | B15
no binding (tested: 50 nM LRRC15) | B16
binds | B17
no binding (tested: 50 nM LRRC15) | B18
no binding (tested: 50 nM LRRC15) | B19
no binding (tested: 50 nM LRRC15) | B20
no binding (tested: 50 nM LRRC15) | B21
no binding (tested: 50 nM LRRC15) | B22
binds | B23

biological target: T2, LRRC15 on the surface of LRRC15+ cells …; test: cell-based or functional assay; remark: another data set of the same source

Internalization in SAOS-2 cells (10 nM, 24 hours), FOB = fold over background (IgG control) | Internalization in SAOS-2 cells (10 nM, 24 hours), FOS = fold over samrotamab | Binder
2.01 fold over background (IgG control) | 0.62 fold over samrotamab | B2
